Here are results for one molecule from US20030022263A1 (ST JUDE CHILDREN S RESEARCH HOSPITAL, published 2003).

The target of the assay is T1, endogenous eIF-4E of mouse fibroblasts (mouse, UniProt P63073 2-217).
T1 construct: mature
Put plainly: eIF-4E captured on a methyl-G column from mouse fibroblast lysates, Western blot for both proteins.

T1 sequence (P63073 2-217): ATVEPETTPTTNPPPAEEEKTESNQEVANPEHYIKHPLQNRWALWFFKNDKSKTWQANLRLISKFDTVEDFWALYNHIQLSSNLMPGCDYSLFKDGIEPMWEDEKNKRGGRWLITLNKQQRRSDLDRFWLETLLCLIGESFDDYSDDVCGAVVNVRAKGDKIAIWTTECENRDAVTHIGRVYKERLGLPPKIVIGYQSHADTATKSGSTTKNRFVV
Procedure: Fibroblasts from normal or AT mice were treated with (+) or without (−) insulin and total cellular and complexed eIF-4E and 4E-BP1 were examined by Western blot. […] The amount of 4E-BP1 bound to eIF-4E was examined by immunoprecipitating eIF-4E with a methyl-G column and then blotting for both proteins.

B1: endogenous 4E-BP1 of mouse fibroblasts (other, UniProt Q60876 2-117, looked up)
chain: SAGSSCSQTPSRAIPTRRVALGDGVQLPPGDYSTTPGGTLFSTTPGGTRIIYDRKFLMECRNSPVAKTPPKDLPAIPGVTSPTSDEPPMQASQSQLPSSPEDKRAGGEESQFEMDI
notes: mature
For the molecule B1, the binding result is given as “binds”.
